Experimental data published in the nanobody polyreactivity screen of Harvey et al. (2022).

Assay: yeast display, Sf9 membrane polyspecificity reagent, FACS + sequencing; frameworks hold sequencing errors
Procedure, shortened: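 A nanobody's polyreactivity label depends on the gate it was sorted from. Yeast display cells were stained with 10% biotinylated, detergent-solubilized Sf9 membrane reagent for 1 hour at 4 °C, enriched on streptavidin microbeads and sorted by FACS. The low and high (top ~1%) gates were set on anti-HA fluorescence for expression and streptavidin fluorescence for reagent binding.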

Row | Sequence | polyreactivity (PSR sort gate)
1 | QVKLVESGGGLVQAGGSLRLSCAASGIIFYDYAMGWYRQAPGKERELVAAISSGGDTYYADSVKGRFTISRDNAKNTVYLQMNSLKPEVTAVYYCAAYPPFIYSDPSIWYDYWGQGSQVTVSS | low polyreactivity
2 | QVKLVESGGGLVQAGGSLRLSCAASGIIFYSYAIGGYRPAPGTERELVAAISSTGSTYYADSVKGRFTISRDNAKNTVYLQMNSLKPEDTAVYYCAATFYPYQVHHYYYWGQGTQVTVSS | low polyreactivity
3 | QVKLVESGGGLVQAGGSLRLSCAASGRIFGRNTMGWYRQAPGKEREFVATITSGGSTYYADSVKGRFTISRDNAKNTVYLQMNSLKPEDTAVYYFNARGYSWRWYPLTSDYDSWGQGTQVTVSS | high polyreactivity
4 | QVKLVESGGGLVQAGGSLRLSCAASGRIFRFNPMGCYRQAPGKERELVAASNWRGGTTYADSVKGRFTISRDNAKNTVYLQMNSLKPEDTAVYYCNAGYGVTKWPYEERYDYWGQGTQVTLSS | high polyreactivity
5 | QVKLVESGGGLVQAGGSLRLSCAASGRTFPSYAMGWYRQAPGKERELVAAISRSGGSTYYADSVKGRFTISRDNAKNPVYLQMNSLKPEDTAVYYCAAVSRVHFSYIYDYWGQGTQVTVSS | high polyreactivity
6 | QVKLVESGGGLVQAGGSLRLSCAASGRTFPYYAKGWYRQAPGKERELVAAISWSGGSTYYADSVKGRFTISRDNAKNTVYLQMNSLKPEDTAVYYCNTVFSPWPDFRRFGYWGQGTQVTVSS | high polyreactivity
7 | QVKLVESGGGLVQAGGSLRLSCAASGRTFYLYAMGWYRQAPGKERELVARITSGGTTNYADSVKGRFTISRDNAKNTVYLQMNSLKPEDTAVYYCAADPEGLGRVASRYFHFDYWGQGTQVTVSS | low polyreactivity
8 | QVKLVESGGGLVQAGGSLRLSCAASGSIFLAYAMGWYRQAPGKEREFVAAISCSDGSTYYADSVKGRFTISRDNAKNTVYLQMNSLKPDDTAVFYCYKGASADDYDYCGQGTQVTVSS | low polyreactivity
9 | QVKLVESGGGLVQAGGSLRLSCAASGSIFLVKVMGWYRQAPGKERELVAAITWSGGRTYYADSVKGRFTISRDNAKNTVYLQMIILKPEDTAVYYCAAEGWLLNGDSWGQGTQVTVSS | high polyreactivity
10 | QVKLVESGGGLVQAGGSLRLSCAASGSIFPHYAMGWYRQAPGKERELVAAISRGGSTNYADSVKGRFTISRDNAKNTVYLQMNSLKPEDTAVYYCNALRYYSRFLYAVAYRYDYWGQGSQVTVSS | high polyreactivity
11 | QVKLVESGGGLVQAGGSLRLSCAASGSIFRRYGMGWYRQAPGKERELVAVITRGGSTYYADSVKGRFTISRDNAKNTVYLQMNSLKPEDTAVYYCNRSAGKDGQVGGQYDYWGQGTQVTVSS | high polyreactivity
12 | QVKLVESGGGLVQAGGSLRLSCAASGSIFVGYAIVWYRQAPGKERELVAAISTRGGSTYYADSVKGRFTISRENAKNTVYLKMNSLTPEDTAVYYCAADYLDSTYGYVYGWDDYWGQGTQVTVSS | low polyreactivity
13 | QVKLVESGGGLVQAGGSLRLSCAASGSIFYQYAMGGNRQAPGKERELVAVINRSGSSTYYADSVKGRFTISRDNAKNTVYLQMNSLKPEDTAVYYCAGASKYSEYNYWGQGTQVTVSS | high polyreactivity
14 | QVKLVESGGGLVQAGGSLRLSCAASGSTFPGYAMGWYRQAPGKERELVAAGGSTYYADSVKGRFTISRDNAKNTVYLQMNSLKTEDTAVYYCAATWGSVQKGTYYYWGQGTQVTVSS | low polyreactivity
15 | QVKLVESGGGLVQAGGSLRLSCAASGSTFVGYAMGWYRQAHGKERELVAAINDSGGSTYYADSVKGRFTISRDNAKNTVYLQMNSLKPEDTAVYYCAADSSGTSWYTFDYWGQGTQVTVSS | low polyreactivity
16 | QVKLVESGGGLVQAGGSLRLSCAAYGSTFTRNAMGWYRQAPGKERQLVAAITSGGSTNYADSVKGRFTISRDNAKNTVYLEMNSLKPEDTAVYYCAAGLGRYFYSWRYLYSIFDYWGQGTQVTVSS | low polyreactivity
17 | QVKLVESGGGLVQAGGSLRLSFAASGYTFGSNAMGWYRQAPGKERELVADIDCSSGNTYYADSVKGRFTISRDNAKNTVYLQMNSLKPEDTAVYYCAAELHIYYSWYWYDYWGQGTQVTVSS | high polyreactivity
18 | QVKLVESGGGLVQAGGSLRLTCAASGITFFIYAMGWYRQAPGKERELFYAIRSGGSTNYADSVKGRFTISRDNAKNTVYLQMNSLKPEDTAVYYCAADVYGTVRRVGWYYVGEGYDYWGQGTQLTVSS | low polyreactivity
19 | QVKLVESGGGLVQAGGTLRLSCAASGSISWVYAMGWYRQAPGKERELVADITDSGDSTYYADSVKGRFTISRDNAKNTVYLQMNSLKPEDTAVFYCAAVSGPFVQTSGNGEYDYCGQGTQVTVSS | low polyreactivity
20 | QVKLVESGGGLVQAVGILSLSCAASGSILGLYAMGWYRQAPGKERELVASITSSGSTYYADSVKGRFTISRDNAKNTVYLQMIILKPEDTAVYYCAAVVSYYYYIRYDYWGQGTQVTVSS | low polyreactivity
21 | QVKLVESGRGFVQAGGSLRISCAASGITFRYNAMGWYRQAPGKERELVAAITFSGGSTYYSDSVKGRFTISRDNAKNTVYLQMNILKPEDTAVYYCAKLGSTSTRGNYDYWGQGTQVTVSS | low polyreactivity
22 | QVKLVESGRGLVQAGGSLRLSCAASGSIFAQNVMGWYRQAPGKERELVAAISYSGGTTYYADSVKGRFTISRDNAQNTVYLQMNSLKPEDTAVYYCAAEFGVYEYDYWGQGTQVTVSS | low polyreactivity

Row | Sequence | polyreactivity (PSR sort gate)
23 | QVKRVESGGGLVQAGGSLRLSCAASGIIFTYYAMGWYRQAPGKERELVAAISWTGGRTYFADSVKGRFTISRDNAKNTVYLQMNSLKREDTAVYYCAAKQYTRFGYYYWGQGTQVTVSS | high polyreactivity
24 | QVLLQESGGGLVQAGGSLRLSCAASGNIFSAGGMGWSRQAPVNERELVAGIGTGTSTNYADSVKGRFTISRDNSKNTVYLQMNSLTPEDTAVYYCAAAYYSGLSHWYWGQGTQVTVSS | low polyreactivity
25 | QVLLQESGGGLVQAGGSLRLSCAASGNIFSAGGMGWYRQAPVKELELVAGIGTGTSTNYADSVKGRFTISRDNAKNTVYLQMNSLKPEDTAVYYCAADSYPAYLGFVGFDYWGQGTQVNVSS | low polyreactivity
26 | QVLLQETGGGLVQAGGSLRLSCAASGTISTDIRMGWYRLAPGKESEFVASIDCCSTTYYADSVKGRFTISRDNAKYTVYLQMNSLKPEDTAMYYCAAREATEFYLYYWGQGTQVTVSS | low polyreactivity
27 | QVLLVESAGGLVQAGGSLRLSCAASGRTFYRYAMGWYRQAPGKERELVAVISWTSGSTYYADSVKGRFTISRDNAKNTVYLQMNSLKPEDTAVYYCAARRGGSYRYEYWGQGTQVTVSS | high polyreactivity
28 | QVLLVESGGGLVQAGGSIRLSCAASGFIFWSNSLGWYRPAPGQEMELVAAISWSGGSTYYADSVKGRFTISRDNAKNNVYLEMNSVKPEDTAVYYCAARQTYGYRYTKYGYWGQGTQVTVSS | high polyreactivity
29 | QVLLVESGGGLVQAGGSLRLSCAASGLTFERYAMGWYRQAPGKERELVAAISIRGGSTYYADSVKGRFTISRDKAMNTVYFQMKSLKPEDTAVDYCSADGSGREYDYWGQGTQVTVSS | low polyreactivity
30 | QVLLVESGGGLVQAGGSLRLSCAASGRIFNAYAMGWYRQAPGKERELVAAISRSGGRTYYADSVKGRFTISRDNAKITVYLQMNSLKPEDTAVYYCAADAWSEQYPKYYYWGQGTQVTVSS | low polyreactivity
31 | QVLLVESGGGLVQAGGSLRLSCAASGRTLRGYAMGWYRQAPGKERELVAAITWSGGSTYYADSVKGRFTISRDHAKNTVYLQMNSLKPEDTAVYYCNARSYPDLYDYWGQGTQVTVSS | low polyreactivity
32 | QVLLVESGGGLVQAGGSLRLSCAASGYTFHVNAMGWYRQAPGKERELVAAINTSGDSTYYADSLKGRFTISRDNAKNTVYLQMNSLKPEDTAVYYCNAKGSVTRIGMEYDYWGQGTQVTVSW | low polyreactivity
33 | QVLLVESGGGLVQAGGSLRLSCSASGSTSRFYAMGWSRQEPGKERELVAAINKSGTRTYYADSVKGRFTISRDNAKNTVYLQMNSLKPEDTAVYYCAADQGTYGYGGFYYWGLGTQVTVSS | high polyreactivity
34 | QVLLVESGGGLVQAGGSLRLSSAASGSTYRNAMGWYRQAPGKERELVAAISSSGGRTYYADSVKGRFTISRDNAKNTVYLQMNSLKPDDTAVYYCAAPRFAAPSRIGYDWGQGTQVTVSS | high polyreactivity
35 | QVLLVESGGGLVQAGGSLRLTCTPYGSIFGYYVMGRYRQPPGKEREFVAAISYGGGSTYYADSVKGRFTISRDNAKNTVYLQMNSLKPEETAVYYCNTDIYSDYVGEEYEYWGQGSQVTVSS | high polyreactivity
36 | QVLLVESGRGIVQAGGSLRLSCAASGGTFQPYAMGWYRQDTGKERELVAANSLNTGSTYYADSVKGRFTISRDNAKNTVYLQMNSLKPEDTAVDYCAVKWFYGGYDYWGQGTQVTVSS | low polyreactivity
37 | QVLMQESGGGLVQAGGSLRLSCAASGNIFSAGGMGWYRQAPVNERELVAGIGTATSTNYADSVKGRFTFSRDNAKNTVYLQMNSLKREDTAVYYCAAAYYSGLSHWYWGQGTQVTVSS | low polyreactivity
38 | QVLQVESGGGVVQAGGSLRLSCSASGSTIGNKTMGWYRQAPGKEREFVAAITESGGGTYADSVKGRFTISRDNAKNTVYLQMNSLKPEDNAVYYSAAVWYIWPFAFYYWGEGTQVTVSS | high polyreactivity
39 | QVNLVDSGGGLVQAGGSHRLSCAASGSIVSGNAMGWYRQEPGKERELVATISWSGGSTNYADSVKGRFTISRDNAKNTVYLQMNSLKPEDTAVYYCNAYVAYWGWVYRVDYWGQGTQVTVSS | low polyreactivity
40 | QVNLVESGGGLVQAGGSLRLSCAASGIIFRSYAMGWYRPAPGKARELVADITSTGTSTYYADSVKGRFTISRDNAKNTVYLQMNSLKPEDNAVYYCNADRFGFYPQRDYWGQGTQVTVSW | high polyreactivity
41 | QVPLVEKGGGLVQAGGSLRLSCAASGFTIGYYAMGWYRQAPGKERELVAASTWRGDTTYYADSVKGRFTISRDNAKNTVYLQMNSLKPEDTAVYYCAAEYEVYFDWSYYYWGQGTQVTVSS | high polyreactivity
42 | QVPLVESGGGIVQAGGSLRLSCAASGRTFRYNAMGWDRQAPGKEREKVAAITYGGGSTYYADSVKGRFTISRDNEKNTVYLQMNILKPEDTAVYYCATRGVSPSRPGYYCGQGTQVTVSS | high polyreactivity
43 | QVPLVESGGGLVQAGCSLRLSCAASGSIFTRDAMGWYRPAPGKERELVAAISAGGGTTYYADSVKGRFTNSRDNAKNTVYLLMNSLKPEDSSVFYCAKRSRSGYYADDSWGHGTQVTVSS | high polyreactivity
